B1: engineered (dimeric) caspase-9 (Δ139, residues 140-416) (domain or fragment, UniProt P55211 140-416, looked up)
chain: GALESLRGNADLAYILSMEPCGHCLIINNVNFCRESGLRTRTGSNIDCEKLRRRFSSLHFMVEVKGDLTAKKMVLALLELAQQDHGALDCCVVVILSHGCQASHLQFPGAVYGTDGCPVSVEKIVNIFNGTSCPSLGGKPKLFFIQACGGEQKDHGFEVASTSPEDESPGSNPEPDATPFQEGLRTFDQLDAISSLPTPSDIFVSYSTFPGFVSWRDPKSGSWYVETLDDIFEQWAHSEDLQSLLLRVANAVSVKGIYKQMPCIVSMLRKKLFFKTS
notes: caspase-9, residues 140-416; prodomain and flexible linker removed; five residues of strand beta6 replaced by those of caspase-3 (Cys264-Ile-Val-Ser-Met268); Predicted dimer mass printed as 62,746 Da; written as one chain; also called engineered caspase-9 (Δ139); Δ139 dimeric caspase-9; source: E. coli BL21(DE3), vector pET-21b, purified (Ni-NTA, anion exchange Source-15Q, gel filtration …)
B2: dimeric caspase-9 (residues 140-416, C287S) (domain or fragment, UniProt P55211 140-416, looked up)
chain: GALESLRGNADLAYILSMEPCGHCLIINNVNFCRESGLRTRTGSNIDCEKLRRRFSSLHFMVEVKGDLTAKKMVLALLELAQQDHGALDCCVVVILSHGCQASHLQFPGAVYGTDGCPVSVEKIVNIFNGTSCPSLGGKPKLFFIQASGGEQKDHGFEVASTSPEDESPGSNPEPDATPFQEGLRTFDQLDAISSLPTPSDIFVSYSTFPGFVSWRDPKSGSWYVETLDDIFEQWAHSEDLQSLLLRVANAVSVKGIYKQMPCIVSMLRKKLFFKTS
notes: caspase-9, residues 140-416; five residues of strand beta6 replaced by those of caspase-3; catalytic Cys287 mutated to Ser; Crystallised form; the model holds residues 140-288 and 335-416 (chains A, C) and 140-289 and 337-416 (chains B, D); also called dimeric caspase-9 (C287S); source: E. coli BL21(DE3), vector pET-21b, purified (Ni-NTA, anion exchange Source-15Q, gel filtration Superdex-200)

What was measured:
[1] = biological target: the molecule itself; assay: SEC; gel filtration of WT and engineered caspase-9 (Δ139, residues 140-416); unpublished data
[2] = biological target: the molecule itself; assay: crystal structure; hanging-drop vapor diffusion, 100 mM MES pH 6.0, 5% PEG 5000 monomethyl ether, 3% tacsimate; space group C2; two molecules of the dimer in the asymmetric unit; molecular replacement

Protein	stoichiometry N [1]	binding result [2]
B1	2	–
B2	–	binds
